Values quoted from earlier work as cited in article PMC8573040.

How the values were obtained:
[1] = molecular target: PhoA (unfolded) (Escherichia coli) [phosphatase: P00634]
[2] = molecular target: MBP (unfolded) (Escherichia coli) [MBP: P0AEX9]
Im7 (Escherichia coli) = Im7 (Escherichia coli) (UniProt Q03708)
UniProt Q03708, sequence (Q03708 whole entry): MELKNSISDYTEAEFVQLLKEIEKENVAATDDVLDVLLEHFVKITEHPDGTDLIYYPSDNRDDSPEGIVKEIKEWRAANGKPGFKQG

Kd [1]	Kd [2]	Substance	Kd (Im7 (Escherichia coli))
500 nM	50 nM	SecB (from UniProt P0AG86)	–
–	–	Spy (from UniProt P77754)	2000 nM
